Measurements: the supplement of paper PMC10567573

B1: USP39 (parent)
chain: TLSEAYIQIWKRRDNDETNQQGA
B2: EDARADD (parent)
chain: VEKVLRRWVDEEWPKRERGDPSRH

Variants of: B1
Experiment: protein stability index of a GFP-peptide fusion (GPS, HEK-293T) (PSI 1-6); higher = more stable
Conditions: c terminus: native
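Further: lentivirally expressed fusions sorted by FACS into six bins by GFP to DsRed ratio, PSI derived from sequencing read proportions per bin multiplied by bin number.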

Protein stability index: each site, then its substitutions
I9: D 2.84; R 3.3; N 3.46; P 3.42; T 2.7; K 3.13; E 3.11; C 2.12; M 2.5; S 2.8; V 2.67; F 2.03; W 1.73; H 2.68; Q 3.23; L 2.21; G 2.54; Y 3.19; A 2.66
L2: C 2.32; T 2.72; P 2.6; Q 3.35; R 2.85; Y 2.12; N 3.33; H 3.1; E 3.08; V 2.73; G 3.77; D 3.46; S 3.08; A 2.8; K 2.74; I 2.77; F 2.51; M 2.98; W 2.63
I7: L 2.44; Y 2.18; K 3.71; G 2.56; H 3.07; R 2.68; P 3.23; N 2.82; E 3.69; F 2.27; C 2.41; T 2.53; Q 3.2; A 2.93; S 3.32; V 2.72; D 3.29; W 3.49
Q8: D 2.48; Y 2.07; I 1.5; C 1.95; V 1.78; S 2.48; N 2.63; A 2.92; H 2.24; R 3.93; T 1.98; M 1.59; G 2.22; K 3.05; F 2; L 1.42; P 1.9; E 3
E4: L 2.49; W 1.73; H 2.28; T 2.74; S 1.76; V 2.12; Q 2.32; D 2.56; I 1.96; F 2.09; M 2.09; K 2.4; A 2.46; N 2.05; G 2.23; P 3.17; Y 2.04; C 1.73; R 2.97
W10: V 3.58; E 3.69; M 2.5; H 2.9; S 3.19; K 3.23; P 3.41; T 2.92; Y 2.53; L 2.96; D 3.97; C 2.45; Q 3.46; F 2.78; A 3.39; G 3.27; I 2.72; N 2.85; R 3.49
K11: E 1.92; P 1.72; D 1.58; H 1.88; L 2.32; N 2.41; Q 1.78; G 2.39; I 2.21; M 2.63; A 1.74; R 1.86; V 1.67; C 3.3; T 3.14; Y 1.44; S 3.78; F 2.04
T1: F 2.16; Y 1.78; M 2.66; V 2.07; K 2.36; E 2.59; D 2.35; A 2.37; S 2.54; H 1.99; C 2.34; Q 2.32; I 2.31; P 2.54; G 3.34; R 2.79; N 2.99
R13: L 1.84; G 1.93; F 1.48; D 3.22; K 2.05; E 2.63; H 2.43; C 2.06; I 2.52; M 2.14
Y6: D 3.66; I 2.88; P 2.61; K 3.02; M 2.26; R 3.02; L 2.2; S 2.89; Q 3.57; A 3.45; C 2.98; F 2.9; V 3.28; T 3.32; N 1.9; E 2.32; G 3.19; H 3.07
S3: I 2.3; V 1.11; F 2.14; C 2.38; H 2.5; G 2.32; A 3.23; L 3.01; Q 2.38; R 2.78; M 2.01; P 3.01; T 2.65; Y 1.98; E 2.95; W 2.32; N 2.2; D 3.55; K 2.68
A5: W 2.18; R 3.47; H 2.39; P 3.69; C 3.14; S 2.31; G 2.86; F 1.78; L 2.29; M 2.19; T 2.38; Y 2.57; E 2.75; V 2.93; K 2.2; Q 2.69; N 2.6; I 2.02; D 3.45
R12: C 2; M 2.1; V 1.86; N 3.13; E 2.65; D 3.2; I 3.09; F 2.61; A 2.15; K 2.89; W 1.18; P 2.07; G 3.15; Q 2.87; H 1.96; L 1.98; T 2.65; Y 1.81; S 2.53

Variants of: B2
Experiment: as above
Conditions: c terminus: a fixed tail appended

Protein stability index of substitutions, site by site:
S22: Q 2.96; I 2.52; E 3.63; V 2.66; K 2.46; H 2.55; R 3.51; F 1.83; C 2.2; W 1.84; M 2.17; A 2.48; Y 2.52; G 2.31; T 2.93; N 2.78; P 2.6; D 3.26
D20: F 2.35; M 2.21; W 2.61; N 2.94; K 3.07; Q 2.5; G 2.81; T 3.07; C 2.31; H 2.81; R 2.48; S 2.68; E 2.63; A 3.45; L 2.5; V 2.71; I 2.19; P 2.04; Y 2.63
G19: Q 2.73; V 2.11; Y 2.21; P 2.89; T 2.55; W 2.1; S 2.8; R 2.64
R23: G 2.59; D 3.05; N 2.81; K 2.83; E 3.71; F 1.98; L 2.66; V 2.44; Q 2.96; I 3.32; Y 2.87; W 1.88; P 3.56; A 2.83; S 3.07; C 3; T 2.58; M 2.45; H 3.38
P21: M 2.39; K 3.46; Q 3.07; G 3.02; C 2.51; L 2.5; S 3.25; Y 2.34; R 2.4; D 3.57; N 3.21; H 2.52; V 2.19; A 3.34; I 2.36; E 3.51; F 2.28; T 2.68; W 1.89
H24: C 2.13; A 2.59; W 1.84; K 3.04; T 2.96; G 2.71; M 3.47; N 2.75; S 2.81; E 2.48; I 2.3; P 2.37; Q 3.56; F 2.61; R 3.5; L 3.12; Y 2.41; D 3.06; V 2.93
